Test results from article PMC2897912 (Journal of immunology (Baltimore, Md. : 1950), 2010).

Target: T1, IL-17RC-FL (murine IL-17RC, full length, unspliced, C-terminal Myc tag) (mouse, UniProt Q8K4C2 22-698)
T1 sequence (looked up): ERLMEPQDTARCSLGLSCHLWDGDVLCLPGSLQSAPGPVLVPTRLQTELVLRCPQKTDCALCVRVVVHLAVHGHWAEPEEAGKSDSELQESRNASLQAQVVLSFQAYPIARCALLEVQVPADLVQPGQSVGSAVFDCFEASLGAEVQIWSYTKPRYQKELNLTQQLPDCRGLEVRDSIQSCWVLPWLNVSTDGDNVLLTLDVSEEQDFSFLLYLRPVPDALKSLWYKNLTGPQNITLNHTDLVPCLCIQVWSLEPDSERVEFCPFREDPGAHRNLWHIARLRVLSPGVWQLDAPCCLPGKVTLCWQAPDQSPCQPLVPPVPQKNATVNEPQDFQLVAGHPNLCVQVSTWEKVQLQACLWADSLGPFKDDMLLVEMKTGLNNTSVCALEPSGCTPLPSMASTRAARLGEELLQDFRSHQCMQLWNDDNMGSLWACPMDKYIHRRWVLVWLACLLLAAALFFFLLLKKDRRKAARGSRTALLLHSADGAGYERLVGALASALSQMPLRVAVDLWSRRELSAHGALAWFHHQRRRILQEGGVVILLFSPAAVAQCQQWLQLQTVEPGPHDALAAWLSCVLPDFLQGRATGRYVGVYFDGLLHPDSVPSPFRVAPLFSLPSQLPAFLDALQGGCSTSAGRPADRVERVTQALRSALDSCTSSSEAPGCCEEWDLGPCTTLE
Assay: co-IP

B1: CFP-tagged murine Act1, larger phosphorylated isoform (phospho-Act1) (natural protein, mouse, UniProt Q8N7N6 1-555, looked up)
chain: MNRSIPVEVDESEPFPSQLLKPIPEYSPEEELEPPAPNTRNMAPSSLSVLQCPPLKLANHQPVSQQVTCLRAKVLEEGEASFFRRHPELGKDISSCSSGASEPESELGALPPEHRFTLTEKRNRWLGSQLSAASPDTGHESDKSDPSLPNALADSFSGGQEMMPRPRPRPGPHRHRAAPDVPTIDTGYDSQPQDVLGIRQLERPLPLTSSCYLQDLPGPLRSRELPPQFELERYPMNAQLLPPHPSPQAPWNCQYYCPGGPYHHQVPHGHGYPPAAAYQQVLQPALPGQVLPGARARGPRPVQKVILNDSSPQDQEERPAQRDFSFPRLPRDQLYRPPSNGVEAPEESLDLPAELRPHGPQAPSLAAVPRPPSNPLARGTLRTSNLPEELRKVFITYSMDTAMEVVKFVNFLLVNGFQTAIDIFEDRIRGIDIIKWMERYLRDKTVMIIVAISPKYKQDVEGAESQLDEDEHGLHTKYIHRMMQIEFISQGSMNFRFIPVLFPNAKKEHVPTWLQNTHVYSWPKNKKNILLRLLREEEYVAPPRGPLPTLQVVPL
modifications: phosphorylated (removed by shrimp alkaline phosphatase; sites not stated)
fold induction of co-precipitated phospho-Act1 over the 0 time point: ~6 fold
